Experimental findings from paper PMC8682488, “c-di-GMP Homeostasis Is Critical for Heterocyst Development in Anabaena sp. PCC 7120” (Frontiers in Microbiology, 2021) are described below.

Numbering of substitutions follows the chain as printed. Names and notes keep the numbering of the source.

A word on the Km: it is the substrate concentration at which the rate is half of its maximum. The kcat is the maximal rate divided by the concentration of active sites.

One series concerns the target T1, CdgS (Nostoc sp. PCC 7120 = FACHB-418, UniProt A0ACD7RTW6).
T1 construct: gene all2874; N-terminal REC and C-terminal GGDEF domain, two C-terminal Strep-tags (pHTwinStrep), E. coli BL21(DE3), Strep-Tactin purified
T1 sequence (A0ACD7RTW6 1-330): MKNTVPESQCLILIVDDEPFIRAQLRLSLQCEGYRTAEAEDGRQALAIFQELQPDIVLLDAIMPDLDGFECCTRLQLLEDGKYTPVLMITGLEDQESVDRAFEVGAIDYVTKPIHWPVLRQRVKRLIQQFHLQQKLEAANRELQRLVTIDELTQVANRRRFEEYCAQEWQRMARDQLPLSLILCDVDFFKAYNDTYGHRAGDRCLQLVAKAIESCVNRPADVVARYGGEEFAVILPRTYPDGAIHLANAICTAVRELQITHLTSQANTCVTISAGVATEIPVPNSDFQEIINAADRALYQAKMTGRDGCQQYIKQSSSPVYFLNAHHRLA
The experiment in a line: HPLC, diguanylate cyclase product formation. The format is biochemical. The settings on record: DGC activity (GTP to c-di-GMP); 50 μM GTP, 2 μM protein, pH 8.0, 10 mM MgCl2, 25 °C, 30 min.

Substrate in series [1]: Nc1nc2c(ncn2[C@@H]2O[C@@H]3CO[P@](=O)(O)O[C@H]4[C@@H](O)[C@H](n5cnc6c(=O)[nH]c(N)nc65)O[C@@H]4CO[P@](=O)(O)O[C@H]3[C@H]2O)c(=O)[nH]1
The experiment in a line: HPLC, c-di-GMP phosphodiesterase steady-state kinetics. The format is biochemical, Nostoc sp. PCC 7120 = FACHB-418. The settings on record: PDE activity (c-di-GMP to pGpG), EAL domain, 50 mM Tris-HCl pH 8.0, 10 mM MgCl2, 0.5 mM EDTA, 300 mM NaCl, 25 °C. The source says:
HPLC, c-di-GMP phosphodiesterase steady-state kinetics on CdgSH

Substrate in series [2]: Nc1nc2c(ncn2[C@@H]2O[C@H](COP(=O)(O)OP(=O)(O)OP(=O)(O)O)[C@@H](O)[C@H]2O)c(=O)[nH]1
The series is described as follows: HPLC, diguanylate cyclase steady-state kinetics. The series is classed as biochemical, Nostoc sp. PCC 7120 = FACHB-418. Particulars: DGC activity (GTP to c-di-GMP), GGDEF domain, 50 mM Tris-HCl pH 8.0, 10 mM MgCl2, 0.5 mM EDTA, 300 mM NaCl, 25 °C. The source says: HPLC, diguanylate cyclase steady-state kinetics on CdgSH

Take `Nc1nc2c(ncn2[C@@H]2O[C@H](COP(=O)(O)OP(=O)(O)OP(=O)(O)O)[C@@H](O)[C@H]2O)c(=O)[nH]1` [GTP]: the “HPLC, diguanylate cyclase product formation” value on CdgS is “CdgS could convert the substrate GTP to c-di-GMP”.

B1: CdgSH (Nostoc sp. PCC 7120 = FACHB-418) (protein)
chain: MPGNEWEKIRHILVVQDLQGQRTIPLQEATYSIGRHTSNAIVLHSRSVSRQHAILLRVTLPETDQCSFRIIDGNFKGQGSTNGLLVNGTRCFSHNLRHGDVINFGSHQAQAKYYAISNISEKAFFASADVEDLSTFLSELSQPVNPFQTLVVDPEFEGASETALARLASFPELIPNPIIETDLEGRVTYINPAASVKFPDLRELGKQHPILKDILNIAENPKINPFVREVTVGHAVYEQSVHNLPESDLIRTYIIRDVTEQKQAEAELHQRDRLLQAVAEAANWLVVEMNYDTAIEKALAVVGEAAQADRAYLFKNHPHPITGKRAVSLQFEWYGSDLQPSIQDWQNQLYQSTELSRWYSVLSSGKSINELRRKLPVAERELLERQGIQSLLLVPLGLEDQFWGYLGLADCTQERYWSRHEESTLLTMAASISGAWQRQQVEEKIRYQALHDLLTGLPNRLLFNELLAKALANASRSQESLAVMFLDLDRFKVINDTLGHTLGDRLLQSVAQRLRDCLRSGDTVSRWGGDEFTILLPHISYIEEVTQAACRILKALEEVFHLDGHELYVSASLGIALLDHHSPDAEALIKHADAALYHAKDEGRNNYQFYTTSLSGKTPELLTLEKSLRYALEKQELKVYYQPRVNILTGQITGMEALLRWQHPEMGIVAPSIFIPIAEETGLIIPIGEWVLRTACMQNRAWQEAGLPPVQMAVNLSPKQFRQPTLLELVSAILAETGLAPEFLELEITESTAIEDIDFTRSVLENLQQMGVDIAIDDFGTGHSSLSRLQLLPLHNLKIDGSFIKALTTDSKVAHIVKAIVTLGRSLGLRLTAEGVEKQEELDFLKSINCQDVQGFLFHKPLSAEKATEILQGEKKHATL
notes: FHA-PAS-GAF-GGDEF-EAL protein, two C-terminal Strep-tags (pHTwinStrep), E. coli BL21(DE3), Strep-Tactin purified
In the case of B1, in series [1], the Km was 23.5 µM and the kcat turned out to be 1.26 s⁻¹. For the same molecule, in series [2], the Km came out at 37.2 µM and the kcat came out at 0.39 s⁻¹.

B2: CdgSH (Nostoc sp. PCC 7120 = FACHB-418; E656A/L658A) (protein)
chain: B1 chain with E656A, L658A
notes: as for B1
For the molecule B2, in series [2], the Km is 34.8 µM and the kcat came out at 0.12 s⁻¹.

B3: CdgSH (Nostoc sp. PCC 7120 = FACHB-418; D530A/E531A) (protein)
chain: B1 chain with D530A, E531A
notes: as for B1
For the molecule B3, in series [1], the Km amounted to 31.0 µM and the kcat turned out to be 1.78 s⁻¹.
